Laboratory results taken from patent US20200048342A1 (INSERM, published 2020).

Legend:
[1] = target: T1, Biotinylated NOTCH3 657-848 (human, UniProt Q9UM47 657-848, biotinylated (site not stated)); assay: Octet RED (BLI), biotinylated NOTCH3 657-848 on streptavidin tips, 5E1 at 333 nM to 3.3 nM; human NOTCH3 (657-848), Octet
T1 construct: also called human NOTCH3 (Octet analysis)
T1 sequence: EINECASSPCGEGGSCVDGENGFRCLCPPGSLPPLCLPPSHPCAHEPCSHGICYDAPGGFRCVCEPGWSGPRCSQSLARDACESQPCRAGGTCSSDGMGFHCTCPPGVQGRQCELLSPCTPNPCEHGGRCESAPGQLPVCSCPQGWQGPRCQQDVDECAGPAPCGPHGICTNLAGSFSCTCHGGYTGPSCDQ
Description: (§1) FIGS. 1A-1B show 5E1 binding to human NOTCH3 using OCTET analysis. (A) Kinetic analysis was performed using the Octet RED technology from ForteBio according to the manufactures instruction. Biotinylated NOTCH3 657-848 was immobilized on streptavidin tips at a level of approximately 3 RU each. (B) Subsequent association and dissociation of 5E1 antibody was analyzed at concentrations in the range from 333 nM to 3.3 nM. Data analysis was subsequently done using the ForteBio Data Analysis 7.0 software (Example 3).
as §1, with “Kinetic” for “FIGS. 1A-1B show 5E1 binding to human NOTCH3 using OCTET analysis. (A) Kinetic”, “each.” for “each. (B)”, “3,3” for “3.3”, “(FIG. 1).” for “(Example 3).”

[2] = target: vascular Notch3ECD deposits of TgPAC-Notch3R169C mice; assay: in vivo target engagement, co-immunolabelling with Alexa 488-conjugated 5E1 for total Notch3ECD deposits, 2 months old TgPAC-Notch3R169C mice

Kd [1]: 0.055 µM
percentage of target engagement [2]: 100%
B1: 5E1 monoclonal antibody (isotype IgG1) (antibody, V domains shown)
VH: EIQLQQSGTVLARPGASVKMSCKASGYTFTSYWMHWVKQRPGQGLEWIGAIYPGNGDTSYNRKFNGKAKLTAVTSTSTAYMEFSSLTNEDSAVYFCTRDYGSSYDYVMDYWGQGTSVTVSS
VL: DIQMTQSPSSLSASLGERVSLTCRASQDIGSSLNWLQQEPDGTIKRLIYATSSLDSGVPKRFSGSRSGSDYSLTISRLESEDFVDYYCLQYISSPLTFGAGTKLELK
notes: Murine monoclonal IgG1 from a hybridoma; also called 5E1 antibody; 5E1 anti-Notch3
